From the RNAGym collection of RNA variant scans (doi:10.1073/pnas.2313332121)
Fewer inactive variants are shown than the library holds.

B1: TPR 5TU (parent)
chain: GGAUCUUCUCGAUCUAACAAAAAAGACAAAUCUGCCACAAAGCUUGAGAGCAUCUUCGGAUGCAGAGGCGGCAGCCUUCGGUGGCGCGAUAGCGCCAACGUUCUCAACUAUGACACGCAAAACGCGUGCUCCGUUGAAUGGAGUUUAUCAUG

Variants of: B1
Assay: polymerase ribozyme fitness, log enrichment relative to wild type (log ratio); higher = more active; in vitro selection for triplet polymerase activity
Method in brief: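 Mutant libraries for each subunit of a heterodimeric triplet polymerase ribozyme were made by PCR and then transcribed. Each library underwent one round of in vitro selection in triplicate: annealing with a biotinylated primer, the partner subunit and triplets, frozen incubation at −7 °C, gel excision of extended constructs, streptavidin-bead capture and RT-PCR. Input and output libraries were Illumina-sequenced, and only genotypes with ≥10 input reads and ≥1 read per output were kept. Fitness is the logarithm, base 2, of genotype enrichment over wild-type enrichment, computed from inverse-variance-weighted replicate averages.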

Row | Variant | polymerase ribozyme fitness (log ratio)
1 | G81A C85G | -1.86
2 | G83A C95A A113U | -3.12
3 | G83C C129G A137C U145C | ≤ -4.2
4 | G83A A89G U109G U130G C132G | ≤ -4.2
5 | G83U G126A U148A | ≤ -4.2
6 | U78G C99G C103A U109G | ≤ -4.2
7 | U78G C96U A107U G141C A150G | ≤ -4.2
8 | C85U A115U C118A A120G | -3.37
9 | G83C C132G | ≤ -4.2
10 | G83C A110G | -3.65
11 | G81A G92A U101A | -3.21
12 | G83C C96A A150C | -3.75
13 | G84A G136U | -2.81
14 | C85G C114G | -3.8
15 | G83U C129A | -4.02
16 | C85A G143U | -2.37
17 | C85A G143C | -3.01
18 | G83C G88C | ≤ -4.2
19 | U82G G86U U102G U130G A147U | ≤ -4.2
20 | U82A C93G G126U | -2.84
21 | U78G C79U G94C A115C G143A | ≤ -4.2

Row | Variant | polymerase ribozyme fitness (log ratio)
22 | G84A G88A U148G | ≤ -4.2
23 | G83U C95U C118U U144A | -3.4
24 | G80C | -3.5
25 | G80U | -0.409
26 | G80A | -0.0737
27 | G84A U139G | -0.68
28 | G84U C118U | -1.91
29 | C79U U134A | -4.05
30 | G83C A98G | -3.71
31 | G83A G92U C118G | -1.41
32 | C85G C114G G141U | -4.17
33 | C85G C118U C132U | -3.11
34 | G81C U102C A147G | -3.21
35 | G80A A142U U144C | -3.55
36 | G83C U101C A119G A122U U135C U145A | -3.51
37 | G80U U82C | -1.68
38 | G81C C87A C99G | ≤ -4.2
39 | U78G G88U | ≤ -4.2
40 | C79A G84A A120U U127C U144C | ≤ -4.2
41 | G83A C108U | -3.01
42 | G81U C85G A89C C93G | ≤ -4.2

Row | Variant | polymerase ribozyme fitness (log ratio)
43 | G83C A97G C108G | ≤ -4.2
44 | U82A G83C C123U | -1.12
45 | G83U A110U | -4.17
46 | G83C G94U | -2.72
47 | G83C G92U A137G | -3.45
48 | G84C G92U A150U | -2.39
49 | C85U A98G A113U U135C | -3.59
50 | U78C A120U G133U G141A | -3.21
51 | C79A C87G A113G | ≤ -4.2
52 | U82C G112U G152A | -3.59
53 | G81A G133U | -3.84
54 | G81A G133C | -3.84
55 | C85G U130G | ≤ -4.2
56 | C85G U102C G141U | -3.43
57 | G84A A89U G136U | -2.91
58 | G80A A89U C95U A120G | -1.11
59 | C85A C87A C108U A121U U135C G141A U145A | ≤ -4.2
60 | G81U C85U | -0.466
61 | G84A U90A A121U | ≤ -4.2
62 | C85G C125A U144A | -3.57
63 | U82A C93U U145G | -2.53

Row | Variant | polymerase ribozyme fitness (log ratio)
64 | C85G C116A | -0.515
65 | G84U G117U A121G | -1.75
66 | U82G C93U C131G G140U U146A | ≤ -4.2
67 | C85A U139G | -1.11
68 | G81U U82C C95U A120U | -0.64
69 | G81A C95U | -1.88
70 | G80A C85G | -1.38
71 | C85A A119U A122U G141A | 0.358
72 | G83U U101A A115U G117U | ≤ -4.2
73 | C85G C87G A98U A137G U144C | ≤ -4.2
74 | C85A A97U G152A | ≤ -4.2
75 | G83C G136U | -2.46
76 | C85A C125G | -1.13
77 | G80A C93G C96U | -3.96
78 | G83A G88U U111G U135A | ≤ -4.2
79 | G84U G133A | ≤ -4.2
80 | C85G C93A | ≤ -4.2
81 | C85A C103A C149U | -3.27
82 | G83A U90C | -3.51
83 | G83A G124C | -2.64
84 | C79G U134C U146C | -4.11
